Measurements as given in the supplement of paper PMC9170038.

Tests used:
MS2 coat protein = experiment: apparent KD of MS2 coat protein; higher = weaker reporter binding; conditions: Eterna round: R107
Procedure: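 RNA-MaP round R107: designed RNA switches with theophylline, tryptophan, arginine or FMN aptamers are transcribed on-chip within common flanks. They are titrated with SNAP-549-labelled MS2 coat protein in RNA-MaP buffer (100 mM Tris pH 7.5, 80 mM KCl, 4 mM MgCl2), without ligand or with the indicated ligand. Median apparent KD per design.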

[1] = tested on: K4 kissing-loop RNA reporter; experiment: apparent KD of K4 kissing-loop reporter; higher = weaker reporter binding; conditions: Eterna round: R107;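 further: bound reporter read as fluorescence of individual clusters on recovered sequencing chips by microscopy, with normalized cluster intensities fitted with a binding model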
Procedure: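 RNA-MaP round R107: designed RNA switches with theophylline, tryptophan, arginine or FMN aptamers are transcribed on-chip within common flanks. They are titrated with a labelled K4 kissing-loop RNA reporter in RNA-MaP buffer (100 mM Tris pH 7.5, 80 mM KCl, 4 mM MgCl2), without ligand or with the indicated ligand. Median apparent KD per design.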

[2] = input ligand: theophylline 20 uM
[3] = input ligand: theophylline 2 mM
[4] = input ligand: tryptophan 2.4 mM

Sequence | apparent KD of MS2 coat protein (MS2 coat protein; input ligand: arginine 13.2 mM) [nM] | apparent KD of MS2 coat protein (MS2 coat protein; input ligand: none) [nM] | apparent KD of MS2 coat protein (MS2 coat protein; [2]) [nM] | apparent KD of MS2 coat protein (MS2 coat protein; [3]) [nM] | apparent KD of MS2 coat protein (MS2 coat protein; [4]) [nM] | apparent KD of K4 kissing-loop reporter ([1]; input ligand: FMN 200 uM) [nM] | apparent KD of K4 kissing-loop reporter ([1]; input ligand: arginine 13.2 mM) [nM] | apparent KD of K4 kissing-loop reporter ([1]; input ligand: none) [nM] | apparent KD of K4 kissing-loop reporter [1, 2] [nM] | apparent KD of K4 kissing-loop reporter [1, 4] [nM]
AAAAGAGGUGGAAGGAGCGGGAGACAUGAGGAUCACCCAUGUGAUGUGACGAAAGGGUCAGCCCAGGUAGGUCGCCAUGUCGAAA [yuyymullin] | 54.6 | 62.9 | 76.2 | 134 | 27.3 | – | – | – | – | –
AAAAUCCUACCUGAGGAUCACCCGGGUGAAGGAGCGCCCGAAAGGGCAGGUAGGUCGCACCUGAGGAUCACCCUGGUAACCUAAA [ArgEX 12 #DoubleMS2 #OpenEnded #AlternativeMS2] | 41.7 | 179 | 187 | 454 | 159 | – | – | – | – | –
AAAAUCCUACCUGAGGAUCACCCUGGUGAAGGAGCGCCCGAAAGGGCAGGUAGGUCGCACCUGAGGAUCACCCGGGUAACCUAAA [ArgEX 14 #DoubleMS2 #OpenEnded #AlternativeMS2] | 78.7 | 170 | 139 | 200 | 151 | – | – | – | – | –
AAACGUUGCUCAGAUACCAGACAUGAGGAUCACCCAUGUACCAAGGUAACCGAAAGGCAUGUCCCUUGGCAGCUGAGCAACGAAA [MAT - Exclusion Theophlline B - Mod of Eli - D16] | 12.4 | – | 21.4 | – | 12.5 | – | – | – | – | –
AAACGUUGCUGCGAUACCAGACAUGAGGAUCACCCAUGUACCAAGGUACGAAAAUAACAUGUCCCUUGGCAGCGCAGCAACGAAA [MAT - Exclusion Theophlline B - Mod of Eli - D6] | 15.7 | – | 29.7 | – | 14.5 | – | – | – | – | –
AAAGCUACGUAAAAUAAAACUACAUGUGAAGGAGCGCGCGAAAGCGCAGGUAGGUCGCACAUGAGGAUCACCCAUGUCGUAGCAA [MAT - Exclusion Arginine A - Mod of Eli - D5] | 43.9 | 63.4 | 101 | 78.2 | 52.2 | – | – | – | – | –
AAAUAAAUAACUGAUACCAGUCGGACAACAUGAGGAUCACCCAUGUUCACCCAUGUUGAGGACCCUUGGCAGCAGAAAUAUAAAA [test (nupak+vienna] | 41.5 | – | 116 | – | 243 | – | – | – | – | –
AAAUAAAUAACUGAUACCAGUGUACUGACAUGAGGAUCACCCAUGUUGGGUUUGGUUGUACACCCUUGGCAGCAGAAAUAUAAAA [test (nupak] | 15.4 | – | 20.6 | – | 15.1 | – | – | – | – | –
AAAUAAAUACAUGAGGAUCACCCAUGUGAAGGAGCGGCCGUUAGGCCAGGUAGGUCGCGCAUGAAUAACUCCGUGCAAAAGCACA [MAT - Exclusion Arginine A - Mod of Eli - D18] | 9.62 | 11.2 | 16.9 | 13.3 | 12.7 | – | – | – | – | –
AAAUGAGGAUCACCCAUGUAACAACGGGAAGGAGCGCCAAACAAGGCAGGUAGGUCGCCCACAUGAGGAUCACCCAUGUGUUGGG [Exclusion Arginine A GF 28] | 89 | 137 | 105 | 166 | 177 | – | – | – | – | –
AAAUGUGUAAAAGCUUUAACACCCUGAGAAGGAGCGCAAUAAAUUGCAGGUAGGUCGCUCAGACAUGAGGAUCACCCAUGUAACC [Atrabeor] | 45.7 | 39.6 | 56.9 | 59.7 | 40 | – | – | – | – | –
AACAGUUGGUCGGCCGCCACUACAUGAGGAUCACCCAUGUAGCGCGUUCUGCUCCAGGGCUCAUCUAGGACCGGGACACGAGUGU [Raa] | 12.2 | – | 21.4 | 14.5 | – | – | – | – | – | –
AACAUGAGGAUCACCCAUGUCCCAUGUGAACGAGGACCGGUACGGCCGCCACUCGAAUAAGGCGGCACAUGAGGAUCACCCACAU [AstrosSSTry#1] | 101 | – | 223 | 206 | – | – | – | – | – | –
UGUGUUGUUUUGAUGUUUGGUGUUUGUUGGCAGGAUAUCGUAGAGGCGAGAAGGGCUUGGGAGCGGUAUGAGUGAUGUUUGUAGG [deedwrmullin] | – | – | – | – | – | 373 | 186 | 364 | 302 | 245
UGUGUUUACCUGACUCAGUGAUGUUGAGAAGGAGCGUGCGAAAGCACAGGUAGGUCGCUCAACCUAAAAUUCAGGUGAGCACUAA [#SwitchBubble 11 #K4Early] | – | – | – | – | – | 366 | 202 | 267 | 263 | 213
UUACCAAGUGAUGUUUGGAAAUAUCCUAGGCAGGAUAUGCGGAAACGCAGAAGGGCCACCUUCUAGUGAAGGAAACUUCGCUAUU [Ex FMN A 3] | – | – | – | – | – | 288 | 199 | 272 | 246 | 263
UUAGAUCAAAGAUCAGUCUUAUUGAGAGAACGAGGACCGGUACGGCCGCCACUCGAGUGAUGUUCGAGAACUCUCUUGACAAAUU [AK1 EXC Tryptophan A] | – | – | – | – | – | 158 | 150 | 169 | 133 | 258
UUAGGCUCUCUUCUCAUUCGCUUAACCGAUACCAGAGUAAGCCCUCUCCCUUGGCAGCGGAGUGAUGUUCCGAGUGUUGAUAUUG [theeternabot_exclusion_KL_Theo_A_44] | – | – | – | – | – | 93.1 | 113 | 113 | 130 | 107
UUAGUCUAGAGAGGAUAUCAGUGAUGUUGAUAUCAAGAUCUAAGAUAGAAUUCUAUCUUAGAUCAAUGAGAAGGCUCUAGACAUU [AK1.1 Exc FMN B] | – | – | – | – | – | 993 | 144 | 151 | 128 | 147
UUAGUCUAGAGAGGAUAUCAGUGAUGUUGAUAUCAAGAUCUGAGAUAGAAUUCUAUCUCAGAUCAAUGAGAAGGCUCUAGACAUU [AK1.2 Exc FMN B] | – | – | – | – | – | 778 | 151 | 168 | 147 | 143
